We go through one substance from FireProtDB (doi:10.1016/j.jmb.2004.09.091).

The conditions of this series: Dictyostelium discoideum, pH 6.7, Urea, Fluorescence, KH2PO4/K2HPO4 50 mM, reversible: Yes.

Sequence of Hisactophilin-1 wild type (P13231 whole entry, looked up): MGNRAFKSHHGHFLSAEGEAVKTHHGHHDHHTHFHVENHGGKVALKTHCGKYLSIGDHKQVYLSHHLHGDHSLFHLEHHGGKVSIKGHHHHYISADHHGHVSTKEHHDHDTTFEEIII

For the substance “Hisactophilin-1 wild type (from UniProt P13231)”, the denaturant m value reads like this: (5 °C) 2.66 kcal/mol/M; (15 °C) 2.7 kcal/mol/M; (20 °C) 2.53 kcal/mol/M; (25 °C) 2.51 kcal/mol/M; (30 °C) 2.28 kcal/mol/M; (35 °C) 2.44 kcal/mol/M. The denaturant m value runs as follows: (40 °C) 2.34 kcal/mol/M; (45 °C) 2.24 kcal/mol/M. Also, the “denaturant midpoint (higher = more stable)” value runs as follows: (5 °C) 2.14 M; (15 °C) 2.58 M; (20 °C) 2.89 M; (25 °C) 2.91 M; (30 °C) 2.95 M; (35 °C) 2.87 M. Besides, the “denaturant midpoint (higher = more stable)” value was 2.63 M (40 °C) and 2.45 M (45 °C). Besides, the unfolding free energy runs as follows: (5 °C) 5.37 kcal/mol; (15 °C) 6.5 kcal/mol; (20 °C) 6.71 kcal/mol; (25 °C) 6.68 kcal/mol; (30 °C) 6.08 kcal/mol; (35 °C) 6.43 kcal/mol. In addition, the unfolding free energy by setting is: (40 °C) 5.67 kcal/mol; (45 °C) 5.05 kcal/mol.
